According to article PMC6053506:

What was measured:
[1] = molecular target: AQP4-IgG (rAb-53) with the Fc mutation K322A (human); assay: BLI; Octet K2, 30°C; antibody (6 µg/ml) loaded on anti-human Fab-CH1 biosensors; mouse FcRn-b2m in solution; PBS pH 7.2 for dilution, association and dissociation
[2] = molecular target: AQP4-IgG (rAb-53) with the Fc mutation N297D (human); assay: as above
[3] = molecular target: AQP4-IgG (rAb-53) with the Fc mutation P331G (human); assay: as above
[4] = molecular target: AQP4-IgG (rAb-53) with the Fc mutation D270A (human); assay: BLI; Octet K2, 30°C; antibody (6 µg/ml) loaded on anti-human Fab-CH1 biosensors; mouse FcRn-b2m in solution, 2,000 to 0 nM; 100 mM sodium phosphate, 150 mM NaCl, 0.05% Tween-20, pH 6; 60 s association, 60 s dissociation
Chain of AQP4-IgG (rAb-53) with the Fc mutation D270A (human) (heavy, as listed by the source, chain 1 of 2): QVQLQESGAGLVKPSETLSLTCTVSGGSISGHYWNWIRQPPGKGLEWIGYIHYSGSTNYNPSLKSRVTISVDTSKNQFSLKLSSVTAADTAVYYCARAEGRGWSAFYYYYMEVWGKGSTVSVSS
Chain of AQP4-IgG (rAb-53) with the Fc mutation D270A (human) (light, as listed by the source, chain 2 of 2): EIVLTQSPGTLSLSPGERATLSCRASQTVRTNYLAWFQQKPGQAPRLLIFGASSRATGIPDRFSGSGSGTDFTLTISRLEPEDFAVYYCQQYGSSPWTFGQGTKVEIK

[5] = molecular target: AQP4-IgG (rAb-53) with the Fc mutation K322A (human); assay: as above
[6] = molecular target: AQP4-IgG (rAb-53) with the Fc mutation N297D (human); assay: as above
[7] = molecular target: AQP4-IgG (rAb-53) with the Fc mutation P329A (human); assay: as above
Chain of AQP4-IgG (rAb-53) with the Fc mutation P329A (human) (heavy, as listed by the source, chain 1 of 2): as the sequence (heavy, as listed by the source, chain 1 of 2) above
Chain of AQP4-IgG (rAb-53) with the Fc mutation P329A (human) (light, as listed by the source, chain 2 of 2): as the sequence (light, as listed by the source, chain 2 of 2) above

[8] = molecular target: AQP4-IgG (rAb-53) with the Fc mutation P331G (human); assay: as above
[9] = molecular target: human monoclonal AQP4-IgG (rAb-53), wild type (human); assay: as above
Chain of human monoclonal AQP4-IgG (rAb-53), wild type (human) (heavy, as listed by the source, chain 1 of 2): as the sequence (heavy, as listed by the source, chain 1 of 2) above
Chain of human monoclonal AQP4-IgG (rAb-53), wild type (human) (light, as listed by the source, chain 2 of 2): as the sequence (light, as listed by the source, chain 2 of 2) above

[10] = molecular target: isotype control antibody directed against measles virus (2B4-IgG) (human); assay: as above

Chain of AQP4-IgG (rAb-53) with the Fc mutation K322A (human) (heavy, as listed by the source, chain 1 of 2): as the sequence (heavy, as listed by the source, chain 1 of 2) above
Chain of AQP4-IgG (rAb-53) with the Fc mutation K322A (human) (light, as listed by the source, chain 2 of 2): as the sequence (light, as listed by the source, chain 2 of 2) above
Chain of AQP4-IgG (rAb-53) with the Fc mutation P331G (human) (heavy, as listed by the source, chain 1 of 2): as the sequence (heavy, as listed by the source, chain 1 of 2) above
Chain of AQP4-IgG (rAb-53) with the Fc mutation P331G (human) (light, as listed by the source, chain 2 of 2): as the sequence (light, as listed by the source, chain 2 of 2) above
Chain of AQP4-IgG (rAb-53) with the Fc mutation N297D (human) (heavy, as listed by the source, chain 1 of 2): as the sequence (heavy, as listed by the source, chain 1 of 2) above
Chain of AQP4-IgG (rAb-53) with the Fc mutation N297D (human) (light, as listed by the source, chain 2 of 2): as the sequence (light, as listed by the source, chain 2 of 2) above

Req [1]: 0.198
Req [2]: 0.136
Req [3]: 0.151
Req [4]: 0.43
Req [5]: 0.987
Req [6]: 1
Req [7]: 1.16
Req [8]: 0.915
Req [9]: 0.851
Req [10]: 0.76
Substance: mouse FcRn-Beta-2 microglobulin heterodimer protein (from UniProt Q61559 22-297; P01887 21-119) (complex)
